Measurements as given in patent US20230365642A1 (MEDICENNA THERAPEUTICS, published 2023).

Key:
[1] = target: T1, IL13Rα Protein, Human, Recombinant, His Tag (human IL13Rα1) (human, UniProt P78552 22-343, limits assumed); assay: ELISA, receptor coated on plate, anti-human IgG Fc detection
T1 construct: also called hIL13Rα1; IL13Ra1; not shown: His tag
T1 sequence (looked up): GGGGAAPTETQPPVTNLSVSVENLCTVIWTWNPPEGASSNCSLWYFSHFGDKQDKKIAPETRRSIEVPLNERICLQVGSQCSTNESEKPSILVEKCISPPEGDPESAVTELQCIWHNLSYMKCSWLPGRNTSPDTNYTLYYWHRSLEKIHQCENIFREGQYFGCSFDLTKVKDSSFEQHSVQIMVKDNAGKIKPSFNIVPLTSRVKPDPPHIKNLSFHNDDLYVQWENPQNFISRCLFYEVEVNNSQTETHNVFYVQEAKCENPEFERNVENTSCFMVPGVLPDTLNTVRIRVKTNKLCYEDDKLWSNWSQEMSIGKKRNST

[2] = target: T2, IL13Rα1 Protein, Mouse, Recombinant, His Tag (mouse, UniProt O09030 26-340, limits assumed); assay: as above
T2 construct: also called mouse IL13Rα1; mIL13Rα1; not shown: His tag
T2 sequence (looked up): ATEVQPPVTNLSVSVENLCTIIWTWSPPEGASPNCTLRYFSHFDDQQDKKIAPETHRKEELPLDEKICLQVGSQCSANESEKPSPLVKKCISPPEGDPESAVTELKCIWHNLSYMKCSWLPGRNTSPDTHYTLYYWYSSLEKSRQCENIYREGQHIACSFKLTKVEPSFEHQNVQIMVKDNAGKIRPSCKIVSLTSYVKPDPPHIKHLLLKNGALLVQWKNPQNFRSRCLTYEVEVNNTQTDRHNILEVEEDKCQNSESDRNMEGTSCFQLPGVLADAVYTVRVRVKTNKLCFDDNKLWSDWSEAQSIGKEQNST

[3] = target: T3, IL4R Type-II (IL4Rα chain with IL13Rα1), on cells (UniProt P24394 26-825; P78552 22-427, limits assumed); assay: cell-based or functional assay
T3 sequence (looked up) 1: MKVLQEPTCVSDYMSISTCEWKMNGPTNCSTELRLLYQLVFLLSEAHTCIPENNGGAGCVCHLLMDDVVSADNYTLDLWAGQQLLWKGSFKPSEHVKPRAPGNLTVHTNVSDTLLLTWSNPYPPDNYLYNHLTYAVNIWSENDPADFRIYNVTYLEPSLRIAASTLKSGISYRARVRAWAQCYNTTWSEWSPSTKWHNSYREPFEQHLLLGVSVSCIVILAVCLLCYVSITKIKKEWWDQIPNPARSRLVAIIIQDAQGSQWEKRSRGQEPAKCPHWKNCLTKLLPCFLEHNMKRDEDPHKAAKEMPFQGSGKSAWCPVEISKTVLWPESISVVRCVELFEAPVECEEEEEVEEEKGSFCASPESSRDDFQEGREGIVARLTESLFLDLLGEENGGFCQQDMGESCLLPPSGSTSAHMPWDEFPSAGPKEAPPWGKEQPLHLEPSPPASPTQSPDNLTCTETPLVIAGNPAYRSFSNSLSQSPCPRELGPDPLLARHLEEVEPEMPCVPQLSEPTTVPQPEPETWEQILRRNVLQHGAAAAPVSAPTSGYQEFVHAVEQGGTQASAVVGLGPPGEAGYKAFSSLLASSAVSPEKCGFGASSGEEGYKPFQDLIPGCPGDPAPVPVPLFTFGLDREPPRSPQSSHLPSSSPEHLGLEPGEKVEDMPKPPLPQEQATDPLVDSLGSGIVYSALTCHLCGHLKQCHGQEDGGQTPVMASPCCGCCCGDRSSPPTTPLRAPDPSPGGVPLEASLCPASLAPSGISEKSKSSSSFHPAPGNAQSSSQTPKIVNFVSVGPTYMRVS
T3 sequence (looked up) 2: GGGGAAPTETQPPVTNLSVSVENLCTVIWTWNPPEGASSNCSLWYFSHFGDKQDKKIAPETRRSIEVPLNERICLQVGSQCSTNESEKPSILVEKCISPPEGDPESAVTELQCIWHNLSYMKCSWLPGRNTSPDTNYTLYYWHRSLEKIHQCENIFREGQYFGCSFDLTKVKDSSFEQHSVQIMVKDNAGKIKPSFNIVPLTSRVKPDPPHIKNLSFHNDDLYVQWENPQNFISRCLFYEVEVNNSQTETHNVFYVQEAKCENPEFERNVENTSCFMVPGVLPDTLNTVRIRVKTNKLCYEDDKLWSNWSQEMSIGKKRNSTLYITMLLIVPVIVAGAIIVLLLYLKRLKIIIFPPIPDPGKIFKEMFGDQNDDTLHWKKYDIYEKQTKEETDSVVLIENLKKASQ

[4] = target: T3, IL4R Type-II (IL4Rα chain with …); assay: cell-based or functional assay; remark: listed apart in the source
[5] = target: T3, IL4R Type-II (IL4Rα chain with …); assay: cell-based or functional assay; remark: listed apart in the source

binding result [1]: binds
binding result [2]: binds
IL-4 Mediated M2 polarization CD206 (IC50 nM), second donor [3]: 2.01 nM
IL-4 Mediated M2 polarization CD209 (IC50 nM), first donor [3]: 0.59 nM
IL-4 Mediated M2 polarization CD209 (IC50 nM), second donor [3]: 2.3 nM
IL-13 Mediated M2 polarization CD206 (IC50 nM), first donor [4]: 0.48 nM
IL-13 Mediated M2 polarization CD209 (IC50 nM), first donor [4]: 1.6 nM
IL-13 Mediated M2 polarization CD209 (IC50 nM), second donor [4]: 0.492 nM
IL4 EC50 (nM); IL-4 competitive assay, HEK-Blue IL-4/IL-13 reporter cells [5]: 7.5 nM
IL 13 EC50 (nM); IL-13 competitive assay, HEK-Blue IL-4/IL-13 reporter cells [5]: 37.8 nM
B1: Fc4-MDNA413 (1:2) (Fc fusion)
chain: APPCPSCPAPEFLGGPSVFLFPPKPKDTLMISRTPEVTCVVVDVSQEDPEVQFNWYVDGVEVHNAKTKPREEQFNSTYRVVSVLTVLHQDWLNGKEYKCKVSNKGLPSSIEKTISKAKGQPREPQVYTLPPSQEEMTKNQVSLTCLVKGFYPSDIAVEWESNGQPENNYKTTPPVLDSDGSFFLYSRLTVDKSRWQEGNVFSCSVMHEALHNHYTQKSLSLSPGKGGGSGSPGPVPPSTAVRALIEELINITQNQKAPLCNGSMVWSINRTAGMYCAALESLINVSGCSAIEKTQDMLSGFCPHKVSAGQFSSLHVRSSKIEVAQFVKDLLFHLRTLFREGQFN
notes: also called Fc4-MDNA413^R39/Q111 (1:2)
